Earlier results as cited in patent US11819552B2, “Antibody-drug conjugates targeting uPARAP” (RIGSHOSPITALET, priority 2016, dated 2023).

Key:
Details in all cases: Jürgensen et al., 2014; cited from earlier work
uPARAP [1] = tested on: uPARAP
uPARAP [2] = target: T1, uPARAP (Homo sapiens, UniProt Q9UBG0)
T1 sequence (Q9UBG0 31-1479): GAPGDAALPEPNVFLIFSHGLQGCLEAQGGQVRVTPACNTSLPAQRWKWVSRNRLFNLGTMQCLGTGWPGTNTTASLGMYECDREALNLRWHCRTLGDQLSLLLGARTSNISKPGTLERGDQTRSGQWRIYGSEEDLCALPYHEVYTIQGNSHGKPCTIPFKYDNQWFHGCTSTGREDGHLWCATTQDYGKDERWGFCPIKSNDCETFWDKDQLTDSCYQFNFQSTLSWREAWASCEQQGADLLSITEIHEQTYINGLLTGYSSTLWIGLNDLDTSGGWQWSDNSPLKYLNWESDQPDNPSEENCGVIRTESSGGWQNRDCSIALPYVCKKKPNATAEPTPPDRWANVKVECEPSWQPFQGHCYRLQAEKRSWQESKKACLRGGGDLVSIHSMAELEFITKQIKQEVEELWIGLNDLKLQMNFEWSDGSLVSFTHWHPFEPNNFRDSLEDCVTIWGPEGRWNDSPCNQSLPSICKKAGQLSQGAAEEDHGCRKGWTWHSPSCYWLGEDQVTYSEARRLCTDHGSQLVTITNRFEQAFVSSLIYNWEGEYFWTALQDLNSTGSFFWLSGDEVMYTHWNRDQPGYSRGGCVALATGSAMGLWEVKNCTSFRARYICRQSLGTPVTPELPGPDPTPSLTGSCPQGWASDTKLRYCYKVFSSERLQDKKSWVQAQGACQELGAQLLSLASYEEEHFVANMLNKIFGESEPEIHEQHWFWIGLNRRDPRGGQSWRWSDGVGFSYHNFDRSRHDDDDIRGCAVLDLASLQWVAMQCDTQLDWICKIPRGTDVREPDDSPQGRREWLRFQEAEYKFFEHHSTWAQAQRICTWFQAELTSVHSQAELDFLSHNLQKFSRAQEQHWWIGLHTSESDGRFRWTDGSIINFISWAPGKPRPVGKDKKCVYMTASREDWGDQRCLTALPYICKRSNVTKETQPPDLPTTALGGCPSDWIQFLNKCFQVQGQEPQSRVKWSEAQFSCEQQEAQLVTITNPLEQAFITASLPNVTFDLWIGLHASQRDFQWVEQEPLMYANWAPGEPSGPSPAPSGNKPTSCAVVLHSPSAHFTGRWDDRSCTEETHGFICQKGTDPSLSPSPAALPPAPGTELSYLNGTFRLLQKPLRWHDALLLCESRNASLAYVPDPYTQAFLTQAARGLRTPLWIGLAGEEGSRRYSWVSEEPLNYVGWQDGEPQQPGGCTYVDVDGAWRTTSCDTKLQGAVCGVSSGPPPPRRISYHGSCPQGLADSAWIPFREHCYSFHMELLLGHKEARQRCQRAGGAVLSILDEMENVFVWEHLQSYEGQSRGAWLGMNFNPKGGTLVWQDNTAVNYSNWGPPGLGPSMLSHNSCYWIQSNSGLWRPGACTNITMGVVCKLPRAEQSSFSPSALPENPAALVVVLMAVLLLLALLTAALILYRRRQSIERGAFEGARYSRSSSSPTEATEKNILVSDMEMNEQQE

[3] = tested on: other members of the mannose receptor family

B1: mAb 5f4: mouse monoclonal IgG1K anti-uPARAP antibody, epitope in the FN-II domain (antibody, V domains shown)
VL: DIVMTQSQKFMSTSLGARVSITCKASQNVGSNVVWYQQKLGQSPKALIYSASSRFSGVPDRFTGSGSGTDFTLTISNVQSEDLAEYFCQQYNTYPLAFGAGTKLELK
VH: DVQLQESGPGLVKPSQSLSVTCTVTGYSITNAYYWNWIRHFPGNKLEWLGYIHSSGDTNYNPSLKSRISITRDTSKNQFFLQLNSVTTEDTATYYCARSPYYSNYFPYWGQGTLVTVSA
- Binding to uPARAP with FN-II domain swapped with that of other family members (uPARAP [1]): not capable of binding
- Binding to wildtype uPARAP (uPARAP [2]): capable of binding
- Binding to artificial family members with FN-II domain switched with that of uPARAP [3]: capable of binding
- Binding to other mannose receptor family members in wildtype form [3]: not capable of binding
